# From article PMC6737378, “Molecular Basis for ATP-Hydrolysis-Driven DNA Translocation by the CMG Helicase of the Eukaryotic Replisome” (Cell Reports, 2019)
# B1: Saccharomyces cerevisiae Csm3-Tof1 complex (complex, S. cerevisiae)
# chain 1: MDQDFDSLLLGFNDSDSVQKDPTVPNGLDGSVVDPTIADPTAITARKRRPQVKLTAEKLLSDKGLPYVLKNAHKRIRISSKKNSYDNLSNIIQFYQLWAHELFPKAKFKDFMKICQTVGKTDPVLREYRVSLFRDEMGMSFDVGTRETGQDLERQSPMVEEHVTSAEERPIVADSFAQDKRNVNNVDYDNDEDDDIYHLSYRNRRGRVLDERGNNETVLNNVVPPKEDLDALLKTFRVQGPVGLEENEKKLLLGWLDAHRKMEKGSMTEEDVQLIQSLEEWEMNDIEGQHTHYDLLPGGDEFGVDQDELDAMKEMGF
# chain 2: MSADLQQGTTNAADFSLTVLRARIALLATAIGGPDYTSQIDPPPYKLGDDCLACLKDLKRWFKLVDDQQKRWDVAMAVAEYRILTDDLLPILIDWENKCSLAAKLAKNNPDHEEFRNKAYYDKIALNCLQLLVLMTWPLIVTEQSSSNQITLYGELKKHQLVYKKTILSMESGKVLRAAIRLALDVIKIDRLSRTPRDNMVLKLVLNFFRNVIAIEPGEFTINTKKSMPKKGITSIDTLPPNVSMDDISLNTVISSFHKNKVFGFLLTLTSSLSKEFDQDFINIPLLEIMFYFTKDVNQELLFPRQFETGTHSKVVNKNESSSANNIVTSAGFELSKLLQKEHQMRKNVIKHTSARHSRFGGLLSIQTPDKTRLTVSGSQALVDEKIALQKLDDSKKWNKRIIKKHQSVAAEGLPNSLLNSQTGKAIFFTESNGKHFKEFINNFIDSGFNILLHSVTNYFTTEQDRMVTLEQVEYLLFFAWFVKYQLLRSKIDNSADIKQVSEALKEVTFILVSSLLRSAYDLKNWTVTHAGMIAFNELLNLVSRTKAAQEEDSTDIEFIVSRLFSDERIQLLSNLPKIGSKYSLQFMKSCIELTHSVLKVLEQYSDDKTLVIEGKSRRQKKFNISEGDITKLIEEENVDRDEALDILTSSLRSIEVNFQKVQANYMTEPVIETYINFLERFRELEDDSIKKVFSFFHRVFVQAKEQALLFRFDLIILLREMLSPDGLDRMSRSRKYVSQFSDYFLARLKKRLKKSPAWFVGLLFPPLHNSEVGFYQRYGEYNVLNNESMYAAPASQFKPIPDEEALPPSILLDMKYGVLVSTLLDDGKTELLDQLLKHITHTLDIFKSWLTVNVNAGKETVNPPNEYFTLTGVLNNDPIFKDKDYRALLLLIGYSIPRKINEPCFLPGTVEVSDLTVSCELVKKYLSTPFETPNGLPSSSYLLRVRSEKDSFSHNEQDGWEGDDDYDYNDPYIVPDDQILSKSDAAYFKDLDNNASDKLKGTKFSKGIARSKKKDKRKRRKGEAKTNLPMFGDQDDERPQTVRERHGVFSKEFISDSEDDEDLMNPIFFENETYMRWLLDKNNGQLTEDRYIQFAKFAAERMNNGGVVTGDYTSLFGGSIPSIESIRATESSSFAPDKSLISLASHVASEMSIFDVNNNNNNQLSDDDVNSESRNSLGSSQPSNSQNMFQSEVYSRKESTKRSLEASAADESDEDEEAIRLFGKKSRVVLSQGDSDD
# notes: Csm3, S. cerevisiae, from strain yAE48 (Yeeles et al., 2017); Tof1, S. cerevisiae, from strain yAE48 (Yeeles et al., 2017); Construct in Yeeles et al., 2017; also called ScCsm3/Tof1
# B2: Saccharomyces cerevisiae Mrc1 (natural protein, S. cerevisiae, UniProt P25588 1-1096, looked up)
# chain: MDDALHALSSLTAKKRTTTYKKVAVPILDENDNTNGNGPNDIDNPPELTGNGFLFANATLNRVKNRLEGKKAPEQNHNNGKDRSENSLPTQLISNLYDGGEELEKSEVKDNSYSEKNVSSSFTQTQRIPVSIQQDKVFNVPIHSVNDGKPTQLIKEDGLVNETSQALKTPLTTGRPGATQRIDSSGATSQTQPIKSIEPQSQIITTSSNHSNALSPKIPIIPTELIGTSPLFQSIQNRGPDTQMDVPPQTAHDEDKTQAIGIPQATHQEQKTQIDTVAQTLQDEVPHTLKIREIQSELASEDSKREKARNVEYKKPQKPIPTKKFFSKESFLADFDDSSSNEDDDIKLENAHPKPVQNDDELHENKSVELNLTDETRINEKRVPLLSSYANNLKREIDSSKCITLDLDSDSDEYGDDDMDSIKLSKDESVLPISQLSKATILNLKARLSKQNQKLSQRPNKSKDPKVDHNVLLNTLRKASRKQILDHQKEVIETKGLKLEDMAKEKEIVENLLEQEILRNKRIRQKEKRREKLEENDFQLNAHDSGSDSGSESSGFALSGNEIADYESSGSENDNRRESDSEKEDDEIILKQKKSHHVKHIINESDSDTEVEAKPKEKADESLPKRIAINLGHYGDNIGEDTDKFQETNVLDTQNIEEVMAERNTIENEVKDDVYVNEEADEAIRRQLIDKEKLQLKQKEKEHEAKIKELKKRGVTNFFEMEAEESEDEWHGIGGADGEGSDDYDSDLEKMIDDYSKNNFNPHEIREMLAAENKEMDIKMINKILYDIKNGGFRNKRAKNSLELELSDDDEDDVLQQYRLKRRELMRKRRLEIGDDAKLVKNPKSSAFFESMVEDIIEYKNPFGAEEEYNLDITSTATDLDTQDNSINVGDNTGNNEQKPVDQKNKKVIISEDFVQKSLSFLKSNNYEDFETDKELSRIQHGNDEAIEDLYTLKQNSSIKSFTNSQTDSTTSKTVNTIIDLEKRPEDEDEVENGDTSLVGVFKHPSIIKSFASRTDINDKFKEGNKTVKILKSYKTVGSSKASITYMGKTRKLIAPKRKTEGSHRYHHDHHNKKMKMKTKTKSNKLFESGQDSFDN
# notes: Mrc1, S. cerevisiae, from strain yJY32 (Yeeles et al., 2017); Construct in Yeeles et al., 2017; also called ScMrc1; FLAG-Mrc1; source: S. cerevisiae strain yJY32, purified (anti-FLAG M2 agarose, MonoQ)
# B3: Saccharomyces cerevisiae Ctf4 trimer (natural protein, S. cerevisiae, UniProt Q01454 1-927, looked up)
# chain: MVSVIDKLVFDFGGKTLVSLAPDNNTLCVANKNGLTKILKTNNPEEEPETLDSSKLVSSIKCYSNSHFLMTTMQGDALRYNIDSSQEELLARFALPLRDCCVIHSGKMAVFGGDDLELILLELDDETHKKHAIKIDEQVSQISYNSQMNILAVSMINGKVQIFSLTSTIPNKVHELNDYIVANSYDDTHRDKILSNMMDDIDKDNDNDLSETADPDENNVADPEFCAANRICTRVAWHPKGLHFALPCADDTVKIFSIKGYSLQKTLSTNLSSTKAHFIDLQFDPLRGTYIAAVDLNNKLTVWNWETSEIHYTREFKRKITNIAWKIQADSKTLDLVLGTWSGSIAIVQNLAESVVSNIPDQSVAESSTKHGLFVDSESDLENLEGNDDINKSDKLFSDITQEANAEDVFTQTHDGPSGLSEKRKYNFEDEEDFIDDDDGAGYISGKKPHNEHSYSRVHKTHSFPISLANTGKFRYMPFSPAGTPFGFTDRRYLTMNEVGYVSTVKNSEQYSITVSFFDVGRFREYHFEDLFGYDLCFLNEKGTLFGQSKTGQIQYRPHDSIHSNWTKIIPLQAGERITSVAATPVRVIVGTSLGYFRSFNQFGVPFAVEKTSPIVALTAQNYRVFSVHYSQFHGLSYSLSELGTSSKRYYKRECPLPMSLPNINSDMKKDANLDYYNFNPMGIKSLFFSSYGDPCIFGSDNTLLLLSKWRSPEESKWLPILDSNMEIWKMSGGKETTDIHVWPLALAYDTLNCILVKGKHIWPEFPLPLPSEMEIRMPVFVKSKLLEENKAILNKKNEIGADTEAEEGEEDKEIQIPVSMAAEEEYLRSKVLSELLTDTLENDGEMYGNENEVLAALNGAYDKALLRLFASACSDQNVEKALSLAHELKQDRALTAAVKISERAELPSLVKKINNIREARYEQQLK
# notes: Ctf4, S. cerevisiae, expression plasmids of Gambus et al., 2009; Called a trimer in the methods; Construct in Gambus et al., 2009; also called ScCtf4; source: E. coli BL21 (DE3), purified (Ni-NTA, MonoQ, Superdex 200)
# Tests used:
# [1] = test system: T1, Drosophila CMG (Cdc45-MCM-GINS helicase; DmCMG); experiment: cryo-EM structure; type: binding, Drosophila melanogaster; details: DNA fork bound, 5 mM ATP elution buffer, 2 mM Mg(OAc)2, pH 7.6; bipartite MCM inter-protomer ATPase sites; states 1A, 1B, 2A, 2B at 3.70-4.46 Å; ADP at loosened interfaces, arising during ATP turnover
# T1 construct: gene Mcm2; with Cell division control protein 45; DNA replication complex GINS protein PSF1; DNA replication complex GINS protein PSF2; DNA replication complex GINS protein PSF3; DNA replication complex GINS protein SLD5
# Text: cryo-EM structure on Drosophila CMG (Cdc45-MCM-GINS helicase; DmCMG) | ATP at inter-protomer interfaces is shown in red.
# [2] = target: T2, Saccharomyces cerevisiae CMG helicase (Cdc45-MCM-GINS) (S. cerevisiae, UniProt P29469 1-868; P24279 1-971; P30665 1-933; P29496 1-775; P53091 1-1017; P38132 …); experiment: DNA fork-affinity purification with silver-stained gel and negative-stain EM 2D averaging; desthiobiotin DNA fork on streptavidin magnetic beads; 250 nM CMG mixed with 350 nM Mrc1 + Csm3-Tof1, 2 mM ATPγS, then 80 nM Polε; Protein Binding Buffer, 30°C; eluted with biotin; dropouts without Mrc1 or Csm3-Tof1; parallel experiment without Polε on an M.HpaII-labeled fork; details: both partners purified
# T2 construct: Mcm2, S. cerevisiae, subunit of the CMG from strain yJCZ3 (Zhou et al., 2017); Mcm3, S. cerevisiae, subunit of the CMG from strain yJCZ3; Mcm4, S. cerevisiae, subunit of the CMG from strain yJCZ3; Mcm5, S. cerevisiae, subunit of the CMG from strain yJCZ3; Mcm6, S. cerevisiae, subunit of the CMG from strain yJCZ3; Mcm7, S. cerevisiae, subunit of the CMG from strain yJCZ3; Cdc45, S. cerevisiae, …
# [3] = target: B1; experiment: DNA-affinity purification; desthiobiotin fork or blunt duplex DNA on streptavidin magnetic beads; 350 nM Mrc1, 350 nM Csm3-Tof1 or 350 nM MCT pre-incubated on ice; Protein Binding Buffer, 30°C; eluted with biotin; details: both partners purified
# [4] = target: T2, Saccharomyces cerevisiae CMG helicase …; experiment: pull-down + other: negative-stain EM; 250 nM CMG held on Calmodulin Affinity Resin, 500 nM Ctf4 added, 1 mM ATPγS, 30°C; eluted with EDTA/EGTA, cross-linked with 0.01% glutaraldehyde and imaged; details: both partners purified
molecule,measurement,setting,value
Nc1ncnc2c1ncn2[C@@H]1O[C@H](COP(=O)(O)OP(=O)(O)O)[C@@H](O)[C@H]1O [ADP],cryo-EM structure,[1],The C-terminal subunit in the spiral is ADP bound as are the non-engaged seam subunits.
B1,binding result,[2],binds
B2,binding result,[2],binds
same,binding result,[3],binds
B3,binding result,[4],binds
